{"source": "paper doi:10.1101/2021.04.21.440744", "about": "(bioRxiv, 2021)", "proteins": {"B1": {"name": "Ebola virus transmembrane glycoprotein GP (natural protein)", "chain": "IPLGVIHNSTLQVSDVDKLVCRDKLSSTNQLRSVGLNLEGNGVATDVPSATKRWGFRSGVPPKVVNYEAGEWAENCYNLEIKKPDGSECLPAAPDGIRGFPRCRYVHKVSGTGPCAGDFAFHKEGAFFLYDRLASTVIYRGTTFAEGVVAFLILPQAKKDFFSSHPLREPVNATEDPSSGYYSTTIRYQATGFGTNETEYLFEVDNLTYVQLESRFTPQFLLQLNETIYTSGKRSNTTGKLIWKVNPEIDTTIGEWAFWETKKNLTRKIRSEELSFTVVSNGAKNISGQSPARTSSDPGTNTTTEDHKIMASENSSAMVQVHSQGREAAVSHLTTLATISTSPQSLTTKPGPDNSTHNTPVYKLDISEATQVEQHHRRTDNDSTASDTPSATTAAGPPKAENTNTSKSTDFLDPATTTSPQNHSETAGNNNTHHQDTGEESASSGKLGLITNTIAGVAGLITGGRRTRREAIVNAQPKCNPNLHYWTTQDEGAAIGLAWIPYFGPAAEGIYIEGLMHNQDGLICGLRQLANETTQALQLFLRATTELRTFSILNRKAIDFLLQRWGGTCHILGPDCCIEPHDWTKNITDKIDQIIHDFVDKTLPDQGDNDNWWTGWRQWIPAGIGVTGVIIAVIALFCICKFVF"}}, "molecular_target": "the molecule itself", "assay": "[…]", "data": [{"protein": "B1", "values": [{"measurement": "stoichiometry N", "value": 3}]}]}
